Assay results from the supplement of paper PMC11780869.

Tested on: Bacillus subtilis
Assay: cleaved RNA product abundance (RNA/gDNA barcode ratio) relative to median wild-type variant (ratio to wild type); higher = more accumulation of the downstream cleavage product
Conditions: cleavage site: cggR-gapA (positions -7 to +36 mutated)
Summary of the method: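 Sequencing of barcodes from gel-selected, reverse-transcribed cleaved RNA and from genomic DNA, with UMI collapsing, yielded a per-construct RNA:gDNA ratio. Scaled to the median construct with the unmutated site, this ratio is the cleaved product abundance. The barcoded reporters (truncated aprE or tetM mRNAs with mutagenized RNase Y cleavage-site windows) were integrated into the B. subtilis chromosome, and cultures grew in LB at 37°C from OD600 0.0003 to 0.3.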

[1] = experiment (reporter, strain, medium): exp 4a: truncated aprE reporter, strain BJT201 with 2% xylose (RNase J1 expressed)
[2] = experiment (reporter, strain, medium): exp 2b: truncated aprE reporter, strain BJT200
[3] = experiment (reporter, strain, medium): exp 6: tetM reporter, strain 168

Sequence	cleaved RNA product abundance [1]	cleaved RNA product abundance [2]	cleaved RNA product abundance [3]
ACAGACGAAGGAGCCGCAAGGAAGTTATTAACGGATGAATAATCCCTCAATATAAATATCTCTCACTTATTTAAA	0.121	–	–
ACAGACGAAGGAGCCGCAAGGAAGTTATTAAGGAATGAATAATCCCTCAATATAAATATCTCTCACTTATTTAAA	0.115	–	–
ACAGACGAAGGAGCCGCAAGGAAGTTATTAAGGCATGAATAATCCCTCAATATAAATATCTCTCACTTATTTAAA	0.148	–	–
ACAGACGAAGGAGCCGCAAGGAAGTTATTAAGGGACGAATAATCCCTCAATATAAATATCTCTCACTTATTTAAA	0.614	–	–
ACAGACGAAGGAGCCGCAAGGAAGTTATTAAGGGATAAATAATCCCTCAATATAAATATCTCTCACTTATTTAAA	0.919	0.888	–
ACAGACGAAGGAGCCGCAAGGAAGTTATTAAGGGATGAAAAATCCCTCAATATAAATATCTCTCACTTATTTAAA	0.663	–	–
ACAGACGAAGGAGCCGCAAGGAAGTTATTAAGGGATGAATAATACCTCAATATAAATATCTCTCACTTATTTAAA	0.197	0.0986	–
ACAGACGAAGGAGCCGCAAGGAAGTTATTAAGGGATGAATAATCCCTCAAAATAAATATCTCTCACTTATTTAAA	0.314	–	–
ACAGACGAAGGAGCCGCAAGGAAGTTATTAAGGGATGAATAATCCCTCAATATAAAAATCTCTCACTTATTTAAA	0.35	–	–
ACAGACGAAGGAGCCGCAAGGAAGTTATTAAGGGATGAATAATCCCTCAATATAAATATCTCTCACTTATTTAAA	0.863	0.954	1.21
ACAGACGAAGGAGCCGCAAGGAAGTTATTAAGGGATGAATAATCCCTCAATATACATATCTCTCACTTATTTAAA	0.774	–	–
ACAGACGAAGGAGCCGCAAGGAAGTTATTAAGGGATGAATAATCCTTCAATATAAATATCTCTCACTTATTTAAA	0.43	–	–
ACAGACGAAGGAGCCGCAAGGAAGTTATTAAGGGATGAATAATCTCTCAATATAAATATCTCTCACTTATTTAAA	0.86	–	–
ACAGACGAAGGAGCCGCAAGGAAGTTATTAAGGGATGAATAATTCCTCAATATAAATATCTCTCACTTATTTAAA	0.793	–	–
ACAGACGAAGGAGCCGCAAGGAAGTTATTAAGGGATGAATCATCCCTCAATATAAATATCTCTCACTTATTTAAA	0.633	0.824	–
ACAGACGAAGGAGCCGCAAGGAAGTTATTAAGGGATGATTAATCCCTCAATATAAATATCTCTCACTTATTTAAA	0.959	–	–
ACAGACGAAGGAGCCGCAAGGAAGTTATTAAGGTATGAATAATCCCTCAATATAAATATCTCTCACTTATTTAAA	0.101	–	–
ACAGACGAAGGAGCCGCAAGGAAGTTATTAAGTGATGAATAATCCCTCAATATAAATATCTCTCACTTATTTAAA	0.149	–	–
ACAGACGAAGGAGCCGCAAGGAAGTTATTAATGGATGAATAATCCCTCAATATAAATATCTCTCACTTATTTAAA	0.162	0.144	–
ACAGACGAAGGAGCCGCAAGGTAGTTATTAAGGGATGAATAATCCCTCAATATAAATATCTCTCACTTATTTAAA	1	–	–

Sequence	cleaved RNA product abundance [1]	cleaved RNA product abundance [2]	cleaved RNA product abundance [3]
ACAGACGAAGGAGCCGCAATAAAGTTATTAAGGGATGAATAATCCCTCAATATAAATATCTCTCACTTATTTAAA	1.09	1.03	–
ACAGACGAAGGAGCCGCAATGAAATTATTAAGGGATGAATAATCCCTCAATATAAATATCTCTCACTTATTTAAA	0.875	0.716	–
ACAGACGAAGGAGCCGCAATGAAATTATTAAGGGATTAATAATCCCTCAATATAAATATCTCTCACTTATTTAAA	0.695	–	–
ACAGACGAAGGAGCCGCAATGAACTTATTAAGGGATGAATAATCCCTCAATATAAATATCTCTCACTTATTTAAA	0.405	–	–
ACAGACGAAGGAGCCGCAATGAAGATATTAAGGCATGAATAATCCCTCAATATAAATATCTCTCACTTATTTAAA	0.138	–	–
ACAGACGAAGGAGCCGCAATGAAGATATTAAGGGATGAATAATCCCTCAATATAAATATCTCTCACTTATTTAAA	0.667	–	–
ACAGACGAAGGAGCCGCAATGAAGTAATTAAGGGATGAATAATCCCTCAATATAAATATCTCTCACTTATTTAAA	0.364	–	–
ACAGACGAAGGAGCCGCAATGAAGTCATTAAGGGATGAATAATCCCTCAATATAAATATCTCTCACTTATTTAAA	–	0.189	–
ACAGACGAAGGAGCCGCAATGAAGTTAATAAGGGATGAATAATCCTTCAATATAAATATCTCTCACTTATTTAAA	0.263	–	–
ACAGACGAAGGAGCCGCAATGAAGTTACTAAGGGATGAATAATCCCTCAATATAAATATCTCTCACTTATTTAAA	0.249	–	–
ACAGACGAAGGAGCCGCAATGAAGTTATCAAGGGATGAATAATCCCTCAATATAAATATCTCTCACTTATTTAAA	0.487	–	–
ACAGACGAAGGAGCCGCAATGAAGTTATTAAAGGATGAATAATCCCTCAATATAAATATCTCTCACTTATTTAAA	0.181	0.181	–
ACAGACGAAGGAGCCGCAATGAAGTTATTAACGGATGAATAATCCCTCAATATAAATATCTCTCACTTATTTAAA	0.145	–	–
ACAGACGAAGGAGCCGCAATGAAGTTATTAAGAGATGAATAATCCCTCAATATAAATATCTCTCACTTATTTAAA	0.204	0.131	–
ACAGACGAAGGAGCCGCAATGAAGTTATTAAGCGATGAATAATCCCTCAATATAAATATCTCTCACTTATTTAAA	0.108	0.0928	–
ACAGACGAAGGAGCCGCAATGAAGTTATTAAGGAATGAATAATCCCTCAATATAAATATCTCTCACTTATTTAAA	0.102	0.131	–
ACAGACGAAGGAGCCGCAATGAAGTTATTAAGGGAAGAATAATCCCTCAATATAAATATCTCTCACTTATTTAAA	0.702	0.389	–
ACAGACGAAGGAGCCGCAATGAAGTTATTAAGGGATAAATAATCCCTCAATATAAATATCTCTCACTTATTTAAA	0.659	–	–
ACAGACGAAGGAGCCGCAATGAAGTTATTAAGGGATGAAAAATCCCTCAATATAAATATCTCTCACTTATTTAAA	0.548	–	–
ACAGACGAAGGAGCCGCAATGAAGTTATTAAGGGATGAATAAACCCTCAATATAAATATCTCTCACTTATTTAAA	0.454	0.647	–

Sequence	cleaved RNA product abundance [1]	cleaved RNA product abundance [2]	cleaved RNA product abundance [3]
ACAGACGAAGGAGCCGCAATGAAGTTATTAAGGGATGAATAATACCTCAATATAAATATCTCTCACTTATTTAAA	0.138	–	–
ACAGACGAAGGAGCCGCAATGAAGTTATTAAGGGATGAATAATCACTCAATATAAATATCTCTCACTTATTTAAA	0.129	0.126	–
ACAGACGAAGGAGCCGCAATGAAGTTATTAAGGGATGAATAATCCATCAATATAAATATCTCTCACTTATTTAAA	0.251	–	–
ACAGACGAAGGAGCCGCAATGAAGTTATTAAGGGATGAATAATCCCACAATATAAATATCTCTCACTTATTTAAA	0.367	–	–
ACAGACGAAGGAGCCGCAATGAAGTTATTAAGGGATGAATAATCCCTAAATATAAATATCTCTCACTTATTTAAA	0.792	–	–
ACAGACGAAGGAGCCGCAATGAAGTTATTAAGGGATGAATAATCCCTCAAAATAAATATCTCTCACTTATTTAAA	0.355	–	–
ACAGACGAAGGAGCCGCAATGAAGTTATTAAGGGATGAATAATCCCTCAATATAAAAATCTCTCACTTATTTAAA	1.03	0.872	–
ACAGACGAAGGAGCCGCAATGAAGTTATTAAGGGATGAATAATCCCTCAATATAAATATCTCTCACTTATTTAAA	1.12	1.1	0.968
ACAGACGAAGGAGCCGCAATGAAGTTATTAAGGGATGAATAATCCCTCAATATGAATATCTCTCACTTATTTAAA	0.141	–	–
ACAGACGAAGGAGCCGCAATGAAGTTATTAAGGGATGAATAATCCCTCAATATTAATATCTCTCACTTATTTAAA	–	0.226	–
ACAGACGAAGGAGCCGCAATGAAGTTATTAAGGGATGAATAATCCCTCTATATAAATATCTCTCACTTATTTAAA	0.689	–	–
ACAGACGAAGGAGCCGCAATGAAGTTATTAAGGGATGAATAATCCCTGAATATAAATATCTCTCACTTATTTAAA	0.713	–	–
ACAGACGAAGGAGCCGCAATGAAGTTATTAAGGGATGAATAATCCTTCAATATAAATATCTCTCACTTATTTAAA	0.581	–	–
ACAGACGAAGGAGCCGCAATGAAGTTATTAAGGGATGAATAATCGCTCAATATAAATATCTCTCACTTATTTAAA	0.0881	–	–
ACAGACGAAGGAGCCGCAATGAAGTTATTAAGGGATGAATAATCTCTCAATATAAATATCTCTCACTTATTTAAA	0.845	0.942	–
ACAGACGAAGGAGCCGCAATGAAGTTATTAAGGGATGAATAATGCCTCAATATAAATATCTCTCACTTATTTAAA	–	0.122	–
ACAGACGAAGGAGCCGCAATGAAGTTATTAAGGGATGAATAATTCCTCAATATAAATATCTCTCACTTATTTAAA	0.517	0.505	–
ACAGACGAAGGAGCCGCAATGAAGTTATTAAGGGATGAATACTCCCTCAATATAAATATCTCTCACTTATTTAAA	–	0.379	–
ACAGACGAAGGAGCCGCAATGAAGTTATTAAGGGATGAATATTCCCTCAATATAAATATCTCTCACTTATTTAAA	0.519	0.573	–
ACAGACGAAGGAGCCGCAATGAAGTTATTAAGGGATGAATGATCCCTCAATATAAATATCTCTCACTTATTTAAA	0.506	–	–
